Here are results for four molecules from patent US20090214537A1 (Novartis, published 2009).

For orientation: Kd means the equilibrium constant for the complex coming apart. A higher Kd goes with weaker binding.

The target of assay [1] is putative BibA receptor on human epithelial cells (ME180, A549, Caco2, 16HBE). Briefly: flow cytometry, recombinant BibA on ME180 cells, anti-BibA serum and PE-conjugated secondary antibody. On the technique in general: A flow cytometer gives signals particle by particle.
Assay [2] shares this target. Briefly: flow cytometry saturation curve on ME180 cells, BibA concentration at 50% saturation (FIG. 22B).
Assay [3] addresses T1, Factor H (alternative complement pathway regulator) (UniProt P08603 19-1231).
T1 construct: also called FH
Description: overlay blot (format not detailed).

Assay [4] has as its target T2, human C4b-binding protein (C4BP) purified from citrated human plasma (human, UniProt P04003 49-597; P20851 18-252).
T2 construct: also called human plasma C4BP; human complement regulator C4 bp
T2 sequence 1: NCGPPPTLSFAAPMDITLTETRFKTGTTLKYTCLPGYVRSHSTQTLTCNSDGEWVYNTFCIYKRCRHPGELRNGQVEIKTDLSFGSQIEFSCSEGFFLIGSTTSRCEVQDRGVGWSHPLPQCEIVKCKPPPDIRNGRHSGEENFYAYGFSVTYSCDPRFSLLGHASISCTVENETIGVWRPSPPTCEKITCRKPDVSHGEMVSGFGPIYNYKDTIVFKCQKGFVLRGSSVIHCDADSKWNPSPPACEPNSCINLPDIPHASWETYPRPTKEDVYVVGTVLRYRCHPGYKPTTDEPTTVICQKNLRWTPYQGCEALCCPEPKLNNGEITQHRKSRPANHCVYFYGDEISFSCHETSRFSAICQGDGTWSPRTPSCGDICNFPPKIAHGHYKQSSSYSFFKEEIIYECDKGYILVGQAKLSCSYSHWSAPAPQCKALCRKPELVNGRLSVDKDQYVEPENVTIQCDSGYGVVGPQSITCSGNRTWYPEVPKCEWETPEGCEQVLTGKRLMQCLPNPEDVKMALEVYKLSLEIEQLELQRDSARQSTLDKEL
T2 sequence 2: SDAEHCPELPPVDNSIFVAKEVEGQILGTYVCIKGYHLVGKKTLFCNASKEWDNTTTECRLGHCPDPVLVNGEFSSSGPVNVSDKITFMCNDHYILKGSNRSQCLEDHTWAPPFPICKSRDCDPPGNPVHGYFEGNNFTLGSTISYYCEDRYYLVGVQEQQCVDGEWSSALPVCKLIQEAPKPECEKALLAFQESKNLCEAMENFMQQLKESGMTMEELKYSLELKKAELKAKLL
Briefly: overlay blot of the SDS-PAGE separated constructs with C4bp (FIG. 21C).

T1 sequence (P08603 19-1231): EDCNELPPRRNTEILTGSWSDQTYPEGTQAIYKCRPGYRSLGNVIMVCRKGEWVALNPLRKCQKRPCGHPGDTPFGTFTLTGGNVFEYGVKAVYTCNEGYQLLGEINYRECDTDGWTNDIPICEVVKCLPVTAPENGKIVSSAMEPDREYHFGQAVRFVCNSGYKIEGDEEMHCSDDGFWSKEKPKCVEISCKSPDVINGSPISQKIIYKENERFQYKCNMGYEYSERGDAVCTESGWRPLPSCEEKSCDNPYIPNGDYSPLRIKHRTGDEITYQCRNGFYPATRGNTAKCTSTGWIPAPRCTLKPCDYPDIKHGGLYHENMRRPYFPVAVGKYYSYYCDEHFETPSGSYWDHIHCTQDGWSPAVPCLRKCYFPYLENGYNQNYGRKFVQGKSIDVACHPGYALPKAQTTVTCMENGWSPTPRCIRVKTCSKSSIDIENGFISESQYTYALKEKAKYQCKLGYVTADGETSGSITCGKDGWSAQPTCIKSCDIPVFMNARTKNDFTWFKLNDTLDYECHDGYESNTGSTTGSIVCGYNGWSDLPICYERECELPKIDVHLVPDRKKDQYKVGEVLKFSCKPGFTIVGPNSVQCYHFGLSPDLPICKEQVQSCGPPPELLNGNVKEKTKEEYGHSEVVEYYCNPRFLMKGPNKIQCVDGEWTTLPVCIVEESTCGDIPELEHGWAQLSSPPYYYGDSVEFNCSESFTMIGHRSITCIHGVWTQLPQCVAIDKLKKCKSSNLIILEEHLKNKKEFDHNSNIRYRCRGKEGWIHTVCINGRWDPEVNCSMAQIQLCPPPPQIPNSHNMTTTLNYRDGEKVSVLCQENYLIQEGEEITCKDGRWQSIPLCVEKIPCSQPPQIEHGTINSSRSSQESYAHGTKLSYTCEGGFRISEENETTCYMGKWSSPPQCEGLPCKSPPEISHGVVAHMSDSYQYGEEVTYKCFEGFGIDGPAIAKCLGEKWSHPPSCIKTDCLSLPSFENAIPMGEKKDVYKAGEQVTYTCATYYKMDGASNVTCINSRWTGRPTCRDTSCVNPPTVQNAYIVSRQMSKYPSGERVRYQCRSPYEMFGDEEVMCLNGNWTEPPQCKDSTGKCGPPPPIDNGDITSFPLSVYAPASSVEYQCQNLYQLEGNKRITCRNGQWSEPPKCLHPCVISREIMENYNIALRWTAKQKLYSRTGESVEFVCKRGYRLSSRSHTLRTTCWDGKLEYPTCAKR

For the molecule “BibA-His (GBS3-His), recombinant entire form of BibA from S. agalactiae 2603 V/R with C-terminal His-tag”, the BibA concentration at which binding reached a plateau in assay [1] was determined as 5 µg/mL. In assay [2], this molecule gave a Kd of 40 nM.

B1: BibA-His (GBS3-His), recombinant entire form of BibA from S. agalactiae 2603 V/R with C-terminal His-tag (other)
chain: MHADTSSGISASIPHKKQVNLGAVTLKNLISKYRGNDKAIAILLSRVNDFNRASQDTLPQLINSTEAEIRNILYQGQIGKQNKPSVTTHAKVSDQELGKQSRRSQDIIKSLGFLSSDQKDILVKSISSSKDSQLILKFVTQATQLNNAESTKAKQMAQNDVALIKNISPEVLEEYKEKIQRASTKSQVDEFVAEAKKVVNSNKETLVNQANGKKQEIAKLENLSNDEMLRYNTAIDNVVKQYNEGKLNITAAMNALNSIKQAAQEVAQKNLQKQYAKKIERISSKGLALSKKAKEIYEKHKSILPTPGYYADSVGTYLNRFRDKQTFGNRSVWTGQSGLDEAKKMLDEVKKLLKELQDLTRGTKEDKKPDVKPEAKPEAKPDVKPEAKPDVKPEAKPDVKPEAKPDVKPEAKPDVKPEAKPDVKPKAKPDVKPEAKPDVKPDVKPDVKPEAKPEDKPDVKPDVKPEAKPDVKPEAKPEAKPEAKPEAKPEAKPEAKPDVKPEAKPDVKPEAKPEAKPEAKSEAKPEAKLEAKPEAKPATKKSVNTSGNLAAKKAIENKKYSKKLPSTGEAASPLLAIVSLIVMLSAGLITLEHHHHHH
notes: His-tagged protein expressed from pET21b(+) in E. coli; also called recombinant BibA; BibA protein
Regarding B1, the binding result in assay [3] is on record as “no binding”.

B2: BibA-Nt-His (GBS3-Nt-His), coiled-coil domain of BibA, aa 34-394 (other)
chain: MHADTSSGISASIPHKKQVNLGAVTLKNLISKYRGNDKAIAILLSRVNDFNRASQDTLPQLINSTEAEIRNILYQGQIGKQNKPSVTTHAKVSDQELGKQSRRSQDIIKSLGFLSSDQKDILVKSISSSKDSQLILKFVTQATQLNNAESTKAKQMAQNDVALIKNISPEVLEEYKEKIQRASTKSQVDEFVAEAKKVVNSNKETLVNQANGKKQEIAKLENLSNDEMLRYNTAIDNVVKQYNEGKLNITAAMNALNSIKQAAQEVAQKNLQKQYAKKIERISSKGLALSKKAKEIYEKHKSILPTPGYYADSVGTYLNRFRDKQTFGNRSVWTGQSGLDEAKKMLDEVKKLLKELQDLTRGLEHHHHHH
notes: His-tagged fragment expressed from pET21b(+); also called BibA N-terminal construct; N-terminal portion of BibA
Consider B2, for which the binding result in assay [4] is “binds”.

B3: BibA-Ct-His (GBS3-Ct-His), proline-rich domain of BibA, aa 389-622 (other)
chain: MQDLTRGTKEDKKPDVKPEAKPEAKPDVKPEAKPDVKPEAKPDVKPEAKPDVKPEAKPDVKPEAKPDVKPKAKPDVKPEAKPDVKPDVKPDVKPEAKPEDKPDVKPDVKPEAKPDVKPEAKPEAKPEAKPEAKPEAKPEAKPDVKPEAKPDVKPEAKPEAKPEAKSEAKPEAKLEAKPEAKPATKKSVNTSGNLAAKKAIENKKYSKKLPSTGEAASPLLAIVSLIVMLSAGLITLEHHHHHH
notes: His-tagged fragment; also called BibA C-terminal construct; C-terminal portion of BibA
As for B3, the binding result in assay [4] is “no binding (tested: 5 µg/ml)”.
